Laboratory results from the supplement of paper PMC7877785.
± gives the uncertainty stated by the source.

Assay: self-splicing fitness, log relative to wild type (ln ratio); higher = more splicing; Tetrahymena group I intron in knt gene, E. coli kanamycin selection, DiMSum; sequences stand for … in CUCUCU…GGAGGGAAAAGUUAUCAGGCAUGCACCUGGUAGCUAGUCUUUAAACCAAUAGAUUGCAUCGGUUUAAAAGGCAAGACCGUCAAAUUGCGGGAAAGGGGUCAACAGCCGUUCAGUACCAAGUCUCAGGGGAAACUUUGAGAUGGCCUUGCAAAGGGUAUGGUAAUAAGCUGACGGACAUGGUCCUAACCACGCAGCCAAGUCCUAAGUCAACAGAUCUUCUGUUGAUAUGGAUGCAGUUCACAGACUAAAUGUCGGUCGGGGAAGAUGUAUUCUUCUCAUAAGAUAUAGUCGGACCUCUCCUUAAUGGGAGCUAGCGGAUGAAGUGAUGCAACACUGGAGCCGCUGGGAACUAAUUUGUAUGCGAAAGUAUAUUGAUUAGUUUUGGAGUACUCGUGGUCG
Outline: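 Colonies from six replicate transformations of E. coli BL21(DE3) were pooled and amplicon-sequenced on an Illumina HiSeq 2500. The library placed an intron with all eight P1ex-region nucleotides randomised inside the knt kanamycin-resistance gene on pET-22b(+), and cells grew overnight at 37°C or 30°C on LB agar with or without 25 μg/mL kanamycin (plus 100 μg/mL carbenicillin, 50 μM IPTG, 0.2% rhamnose). Fitness is the DiMSum error-weighted combination of wild-type-normalised replicate fold changes, kanamycin versus none.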

| Sequence | self-splicing fitness (ln) (30 °C) | self-splicing fitness (ln) (37 °C) |
| --- | --- | --- |
| GGCGAGCAAUAUUACGUAUC | -1.61 ± 0.14 | -0.00113 ± 0.13 |
| GGCGAGCAAUAUUACGUCCG | -3.67 ± 0.35 | -2.39 ± 0.32 |
| GGCGAGCAAUAUUACGUUGA | -1.56 ± 0.13 | -2.18 ± 0.15 |
| GGCGAGCAAUAUUACGUUUU | -1.35 ± 0.094 | -1.35 ± 0.14 |
| GGCUAGCAAUAUUACGAACA | -1.01 ± 0.15 | -0.682 ± 0.15 |
| GGCUAGCAAUAUUACGAGAU | -3.58 ± 0.21 | -1.34 ± 0.14 |
| GGCUAGCAAUAUUACGAGGU | -3.02 ± 0.42 | -1.07 ± 0.18 |
| GGCUAGCAAUAUUACGAUAA | -1.28 ± 0.17 | -1.75 ± 0.16 |
| GGCUAGCAAUAUUACGAUGC | -1.03 ± 0.15 | -0.519 ± 0.28 |
| GGCUAGCAAUAUUACGCCAA | -2 ± 0.11 | -0.903 ± 0.16 |
| GGCUAGCAAUAUUACGCGCA | 0.157 ± 0.096 | -0.145 ± 0.13 |
| GGCUAGCAAUAUUACGCGCC | -3.69 ± 0.34 | -2.17 ± 0.38 |
| GGCUAGCAAUAUUACGCGUU | -0.656 ± 0.066 | -0.29 ± 0.08 |
| GGCUAGCAAUAUUACGCUCU | -2.35 ± 0.31 | -0.975 ± 0.19 |
| GGCUAGCAAUAUUACGGAAU | -0.705 ± 0.072 | -0.0885 ± 0.1 |
| GGCUAGCAAUAUUACGGAGA | -3.65 ± 0.37 | – |
| GGCUAGCAAUAUUACGGAUA | -0.897 ± 0.13 | -0.492 ± 0.15 |
| GGCUAGCAAUAUUACGGCCA | -1.53 ± 0.21 | -0.776 ± 0.26 |
| GGCUAGCAAUAUUACGGCUU | -1.31 ± 0.17 | 0.197 ± 0.21 |
| GGCUAGCAAUAUUACGGGAC | -3.59 ± 0.3 | -0.762 ± 0.21 |
| GGCUAGCAAUAUUACGGGCG | -1.34 ± 0.095 | -0.19 ± 0.12 |
| GGCUAGCAAUAUUACGGUUA | 0.156 ± 0.084 | 0.606 ± 0.089 |
| GGCUAGCAAUAUUACGGUUC | -1.31 ± 0.056 | -0.331 ± 0.072 |
| GGCUAGCAAUAUUACGUAAC | -0.594 ± 0.083 | -0.442 ± 0.11 |

| Sequence | self-splicing fitness (ln) (30 °C) | self-splicing fitness (ln) (37 °C) |
| --- | --- | --- |
| GGCUAGCAAUAUUACGUAAG | -1.64 ± 0.068 | -0.594 ± 0.094 |
| GGCUAGCAAUAUUACGUAGC | -4.64 ± 0.42 | -2.16 ± 0.43 |
| GGCUAGCAAUAUUACGUCUG | -4.06 ± 0.31 | -2.13 ± 0.17 |
| GGCUAGCAAUAUUACGUGGC | -2.66 ± 0.28 | -1.23 ± 0.28 |
| GGCUAGCAAUAUUACGUUAA | -1.24 ± 0.091 | -0.642 ± 0.12 |
| GGGAAGCAAUAUUACGACGU | -0.169 ± 0.15 | 0.767 ± 0.17 |
| GGGAAGCAAUAUUACGAUUG | -3.59 ± 0.21 | -3.25 ± 0.3 |
| GGGAAGCAAUAUUACGCUAU | -2.75 ± 0.19 | -0.951 ± 0.14 |
| GGGAAGCAAUAUUACGGACC | -3.81 ± 0.4 | -2.35 ± 0.46 |
| GGGAAGCAAUAUUACGGACU | -1.99 ± 0.17 | -0.24 ± 0.19 |
| GGGAAGCAAUAUUACGGAUC | -0.0316 ± 0.077 | -0.684 ± 0.088 |
| GGGAAGCAAUAUUACGGCUA | -0.707 ± 0.089 | 0.0151 ± 0.12 |
| GGGAAGCAAUAUUACGGGAG | -3.28 ± 0.32 | -2.09 ± 0.27 |
| GGGAAGCAAUAUUACGGGGG | -4.18 ± 0.35 | -3.18 ± 0.32 |
| GGGAAGCAAUAUUACGGGUU | -3.15 ± 0.21 | -1.36 ± 0.15 |
| GGGAAGCAAUAUUACGGUCG | 0.00025 ± 0.1 | -0.403 ± 0.14 |
| GGGAAGCAAUAUUACGGUGA | -1.76 ± 0.3 | -0.447 ± 0.18 |
| GGGAAGCAAUAUUACGGUUA | -1.27 ± 0.11 | -0.726 ± 0.1 |
| GGGAAGCAAUAUUACGUAAU | -1.88 ± 0.14 | -0.632 ± 0.22 |
| GGGAAGCAAUAUUACGUACA | -1.02 ± 0.14 | -0.334 ± 0.24 |
| GGGAAGCAAUAUUACGUAUA | -2.79 ± 0.15 | -0.738 ± 0.094 |
| GGGAAGCAAUAUUACGUCAC | -3.08 ± 0.2 | -1.77 ± 0.19 |
| GGGAAGCAAUAUUACGUGGA | -2 ± 0.17 | -2.34 ± 0.29 |
| GGGAAGCAAUAUUACGUGGU | -4.31 ± 0.27 | -3.33 ± 0.47 |

| Sequence | self-splicing fitness (ln) (30 °C) | self-splicing fitness (ln) (37 °C) |
| --- | --- | --- |
| GGGCAGCAAUAUUACGAAAC | -0.715 ± 0.3 | -0.594 ± 0.28 |
| GGGCAGCAAUAUUACGAACU | -0.431 ± 0.065 | -0.278 ± 0.09 |
| GGGCAGCAAUAUUACGACCA | -0.297 ± 0.28 | 0.951 ± 0.41 |
| GGGCAGCAAUAUUACGAGAA | -3.05 ± 0.47 | -1.87 ± 0.3 |
| GGGCAGCAAUAUUACGAGCG | -0.755 ± 0.1 | 0.344 ± 0.12 |
| GGGCAGCAAUAUUACGAGCU | -2.69 ± 0.22 | 0.481 ± 0.13 |
| GGGCAGCAAUAUUACGAUGA | -1.36 ± 0.12 | -0.649 ± 0.11 |
| GGGCAGCAAUAUUACGCAUA | -1 ± 0.092 | 0.38 ± 0.13 |
| GGGCAGCAAUAUUACGCCGC | -3.33 ± 0.22 | -2.27 ± 0.31 |
| GGGCAGCAAUAUUACGCUAG | -1.86 ± 0.078 | -0.741 ± 0.11 |
| GGGCAGCAAUAUUACGGAGA | -4.44 ± 0.46 | -2.56 ± 0.22 |
| GGGCAGCAAUAUUACGGAUU | -0.98 ± 0.12 | -0.0797 ± 0.1 |
| GGGCAGCAAUAUUACGGCGC | -0.77 ± 0.11 | 0.0143 ± 0.14 |
| GGGCAGCAAUAUUACGGGGA | -2.97 ± 0.21 | -1.56 ± 0.17 |
| GGGCAGCAAUAUUACGGUAC | -1.73 ± 0.097 | -0.144 ± 0.1 |
| GGGCAGCAAUAUUACGGUGC | -2.21 ± 0.13 | -1.8 ± 0.089 |
| GGGCAGCAAUAUUACGUAGU | -0.605 ± 0.086 | -0.727 ± 0.11 |
| GGGCAGCAAUAUUACGUAUG | -3.15 ± 0.23 | -1.44 ± 0.22 |
| GGGCAGCAAUAUUACGUAUU | -0.944 ± 0.061 | 0.0363 ± 0.074 |
| GGGCAGCAAUAUUACGUUGU | -2.7 ± 0.16 | -2.77 ± 0.19 |
| GGGCAGCAAUAUUACGUUUC | -2.2 ± 0.094 | -0.672 ± 0.098 |
| GGGGAGCAAUAUUACGACAG | -3.9 ± 0.39 | -2.33 ± 0.39 |
| GGGGAGCAAUAUUACGACGC | -0.34 ± 0.15 | 0.117 ± 0.2 |
| GGGGAGCAAUAUUACGAGGG | -2.13 ± 0.19 | – |

| Sequence | self-splicing fitness (ln) (30 °C) | self-splicing fitness (ln) (37 °C) |
| --- | --- | --- |
| GGGGAGCAAUAUUACGAUGC | -1.06 ± 0.42 | – |
| GGGGAGCAAUAUUACGCACA | -2.37 ± 0.43 | -0.994 ± 0.34 |
| GGGGAGCAAUAUUACGCUAG | -2.63 ± 0.27 | – |
| GGGGAGCAAUAUUACGCUCA | -1.05 ± 0.15 | -0.61 ± 0.21 |
| GGGGAGCAAUAUUACGCUUC | -3.28 ± 0.4 | -2.12 ± 0.49 |
| GGGGAGCAAUAUUACGGCUG | -2.72 ± 0.15 | -1.09 ± 0.22 |
| GGGGAGCAAUAUUACGUACU | -1.58 ± 0.17 | -0.886 ± 0.16 |
| GGGGAGCAAUAUUACGUCCG | -0.963 ± 0.13 | -0.326 ± 0.2 |
| GGGGAGCAAUAUUACGUCUG | -2.55 ± 0.37 | -1.24 ± 0.24 |
| GGGUAGCAAUAUUACGAAAC | -1.26 ± 0.32 | -0.11 ± 0.4 |
| GGGUAGCAAUAUUACGAAGU | -1.74 ± 0.23 | -1.57 ± 0.24 |
| GGGUAGCAAUAUUACGAUCA | -0.0146 ± 0.13 | 0.0752 ± 0.16 |
| GGGUAGCAAUAUUACGCAGA | -2.97 ± 0.28 | -1.93 ± 0.26 |
| GGGUAGCAAUAUUACGCCUG | -1.42 ± 0.12 | -0.219 ± 0.14 |
| GGGUAGCAAUAUUACGCUAA | -1.32 ± 0.29 | -0.0326 ± 0.25 |
| GGGUAGCAAUAUUACGCUUU | -0.389 ± 0.11 | -0.688 ± 0.12 |
| GGGUAGCAAUAUUACGGAAC | -0.98 ± 0.11 | -1.49 ± 0.19 |
| GGGUAGCAAUAUUACGGAGA | -4.31 ± 0.3 | -3.19 ± 0.23 |
| GGGUAGCAAUAUUACGGGAG | -2.54 ± 0.28 | -1.44 ± 0.25 |
| GGGUAGCAAUAUUACGGUCG | -0.207 ± 0.12 | -0.642 ± 0.096 |
| GGGUAGCAAUAUUACGUAUC | -1.3 ± 0.21 | -0.963 ± 0.24 |
| GGGUAGCAAUAUUACGUAUU | -0.286 ± 0.07 | -1.06 ± 0.11 |
| GGGUAGCAAUAUUACGUGAA | -1.36 ± 0.13 | -0.147 ± 0.16 |
| GGGUAGCAAUAUUACGUGUG | -1.65 ± 0.11 | -1.24 ± 0.12 |
